In patent publication US20180072811A1 (GENERAL HOSPITAL, published 2018):

Molecular target: T1, chondroitin sulfate proteoglycan 4 (CSPG4), human (human, UniProt Q6UVK1 30-2322)
T1 construct: whole, on cells; Cell surface proteoglycan; also called MCSP; NG2
Test: reactivity of single scFv clones with CSPG4+ SK-MEL-28 melanoma cells and CSPG4- LG2 B lymphoid cells

T1 sequence (Q6UVK1 30-2322): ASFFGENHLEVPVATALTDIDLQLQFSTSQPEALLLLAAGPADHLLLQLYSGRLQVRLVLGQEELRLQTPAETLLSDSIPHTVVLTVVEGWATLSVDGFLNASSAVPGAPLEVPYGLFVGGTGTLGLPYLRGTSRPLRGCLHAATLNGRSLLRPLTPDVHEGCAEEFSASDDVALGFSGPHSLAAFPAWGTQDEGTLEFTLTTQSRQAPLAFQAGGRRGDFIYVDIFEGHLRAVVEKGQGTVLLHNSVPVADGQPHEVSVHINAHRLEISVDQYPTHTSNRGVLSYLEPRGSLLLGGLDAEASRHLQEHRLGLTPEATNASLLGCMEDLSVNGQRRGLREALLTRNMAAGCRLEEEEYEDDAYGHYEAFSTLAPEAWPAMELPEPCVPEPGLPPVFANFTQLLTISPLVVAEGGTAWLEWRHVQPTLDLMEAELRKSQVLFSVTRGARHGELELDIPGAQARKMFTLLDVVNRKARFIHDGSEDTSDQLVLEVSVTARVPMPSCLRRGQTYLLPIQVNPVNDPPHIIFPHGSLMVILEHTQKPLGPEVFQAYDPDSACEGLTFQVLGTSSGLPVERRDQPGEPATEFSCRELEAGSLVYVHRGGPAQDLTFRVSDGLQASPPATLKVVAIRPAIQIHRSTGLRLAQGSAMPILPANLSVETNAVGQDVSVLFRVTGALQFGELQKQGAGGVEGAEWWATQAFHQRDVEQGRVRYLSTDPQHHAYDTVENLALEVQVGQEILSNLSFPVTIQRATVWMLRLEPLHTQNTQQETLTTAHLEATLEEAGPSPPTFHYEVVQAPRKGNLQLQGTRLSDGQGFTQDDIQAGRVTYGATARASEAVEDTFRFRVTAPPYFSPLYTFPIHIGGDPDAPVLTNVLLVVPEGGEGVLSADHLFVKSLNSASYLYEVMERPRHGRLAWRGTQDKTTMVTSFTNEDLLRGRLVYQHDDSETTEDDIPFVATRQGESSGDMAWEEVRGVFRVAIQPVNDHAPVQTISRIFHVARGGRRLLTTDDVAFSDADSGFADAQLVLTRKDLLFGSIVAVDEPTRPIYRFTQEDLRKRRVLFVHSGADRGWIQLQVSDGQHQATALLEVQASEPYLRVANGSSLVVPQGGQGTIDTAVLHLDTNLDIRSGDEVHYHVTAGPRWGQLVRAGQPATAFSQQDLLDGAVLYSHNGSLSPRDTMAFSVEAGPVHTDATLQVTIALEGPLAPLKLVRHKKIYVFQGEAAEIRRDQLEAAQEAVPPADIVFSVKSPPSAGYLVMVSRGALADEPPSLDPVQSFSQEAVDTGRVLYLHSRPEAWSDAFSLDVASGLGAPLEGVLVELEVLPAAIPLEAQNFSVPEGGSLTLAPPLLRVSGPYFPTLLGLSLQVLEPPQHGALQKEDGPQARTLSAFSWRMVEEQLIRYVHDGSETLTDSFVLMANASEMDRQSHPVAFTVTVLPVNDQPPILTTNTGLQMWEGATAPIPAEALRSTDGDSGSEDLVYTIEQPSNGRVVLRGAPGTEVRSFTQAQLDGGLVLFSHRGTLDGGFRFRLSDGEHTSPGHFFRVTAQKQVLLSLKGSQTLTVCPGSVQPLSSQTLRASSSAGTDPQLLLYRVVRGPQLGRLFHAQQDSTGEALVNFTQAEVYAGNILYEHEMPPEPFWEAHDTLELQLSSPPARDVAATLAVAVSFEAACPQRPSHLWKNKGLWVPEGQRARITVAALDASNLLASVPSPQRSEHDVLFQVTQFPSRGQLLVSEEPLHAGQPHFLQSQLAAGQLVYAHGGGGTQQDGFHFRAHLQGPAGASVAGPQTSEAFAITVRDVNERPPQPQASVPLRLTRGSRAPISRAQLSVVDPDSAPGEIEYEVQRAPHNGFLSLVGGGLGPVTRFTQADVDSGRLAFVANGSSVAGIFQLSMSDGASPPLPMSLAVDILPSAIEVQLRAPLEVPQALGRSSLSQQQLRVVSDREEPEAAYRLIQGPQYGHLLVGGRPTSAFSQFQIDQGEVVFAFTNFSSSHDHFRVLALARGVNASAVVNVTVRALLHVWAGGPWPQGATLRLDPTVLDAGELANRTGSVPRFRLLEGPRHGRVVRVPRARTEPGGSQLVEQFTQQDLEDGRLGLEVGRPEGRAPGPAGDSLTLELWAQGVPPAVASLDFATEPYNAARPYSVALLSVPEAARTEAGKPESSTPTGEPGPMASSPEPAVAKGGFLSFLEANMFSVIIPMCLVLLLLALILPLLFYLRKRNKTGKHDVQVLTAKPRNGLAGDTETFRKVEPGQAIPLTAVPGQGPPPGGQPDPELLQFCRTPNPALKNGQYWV

B1: scFv SK5 (scFv)
scFv: MAEVQLVESGGGVVRPGGSLRLSCAASGFTFDDYGMSWVRQAPGKGLEWVSGINWNGGSTGYADSVKGRFTISRDNAKNSLYLQMNSLRAEDTAVYYCARGVLSRYFDYWGQGTLVTVSSGGGGSGGGGSGGGGSEIELTQSPATLSLSPGERATLSCRASQSVSSYLAWYQQKPGQAPRLLIYDASNRATGIPARFSGSGSGTDFTLTISSLEPEDFAVYYCQQRSNWPPAFGGGTKVEIKRAA
notes: Fully human scFv from a semi-synthetic phage display library; Tested as soluble scFv in supernatant with a c-Myc tag, detected through mAb 9E10; also called CSPG4-specific human scFv SK5
  binding result: binds
